Reference: patent CN113234160A (GUANGZHOU EXCELMAB BIOMEDICAL TECH CO LTD, dated 2021)

How the values were obtained:
[1] = biological target: T1, 人PD-1抗原 (ACRO, Cat.PD-1-H5221) (human, UniProt Q15116 25-167); assay: indirect ELISA, human PD-1 coated
T1 construct: Bought antigen coated on ELISA plates; also called human PD-1 antigen; hPD-1

[2] = biological target: T2, 人PD-1抗原 on Jurkat/PD-1 cells (human, UniProt Q15116 25-288); assay: indirect flow cytometry on Jurkat/PD-1 cells
T2 construct: whole, on cells; Used for the flow cytometry cells and for the Jurkat reporter cells that carry PD-1; also called 过表达人PD-1抗原的Jurkat细胞; Jurkat/hPD-1 NFAT-Luciferase
T2 sequence (Q15116 25-288): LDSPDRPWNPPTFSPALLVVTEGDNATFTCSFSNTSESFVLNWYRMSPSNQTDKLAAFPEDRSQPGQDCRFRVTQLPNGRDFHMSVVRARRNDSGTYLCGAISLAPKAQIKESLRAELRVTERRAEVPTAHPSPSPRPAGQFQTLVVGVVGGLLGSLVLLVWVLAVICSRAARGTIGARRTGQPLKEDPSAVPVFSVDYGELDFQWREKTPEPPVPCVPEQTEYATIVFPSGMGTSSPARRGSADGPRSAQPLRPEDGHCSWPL

T1 sequence (Q15116 25-167 limits assumed): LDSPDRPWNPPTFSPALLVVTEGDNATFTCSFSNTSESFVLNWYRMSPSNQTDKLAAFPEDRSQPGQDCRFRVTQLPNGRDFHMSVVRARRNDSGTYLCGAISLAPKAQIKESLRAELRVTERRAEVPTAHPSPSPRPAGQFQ

B1: hmp12 (antibody, V domains shown)
VH: EVQLVESGGGLVKPGGSLRLSCAASGFTFSSYDMSWVRQAPGKGLEWVATISGGGSYTYYADSVKGRFTISRDNAKNSLYLQMNSLRAEDTALYYCASPYAGYFDVWGQGTMVTVSS
VL: DIQMTQSPSSLSASVGDRVTITCSASSSISSNYLHWYQQKPGKAPKLLIYRTSNLQSGVPARFSGSGSGTSYSLTISSLQPEDFATYYCQQGSSIPLTFGQGTKLEIK
notes: also called 人源化抗体hmp12
- binding result [1]: binds
- binding result [2]: binds
